Patent US20210101982A1 (Seagen, published 2021)
Residue numbers refer to the chain shown, from its start.

B1: SG-559-02 (antibody, human IgG1, kappa, V domains shown)
VH: QVQLVQSGAEVKKPGSSVKVSCKTSGDTFSTYAISWVRQAPGQGLEWMGGIIPIFGKAHYAQKFQGRVTITADESTSTAYMELSSLRSEDTAVYFCARKFHFVSGSPFGMDVWGQGTTVTVSS
VL: EIVLTQSPATLSLSPGERATLSCRASQSVSSALAWYQQKPGQAPRLLIYDASNRATGIPARFSGSGSGTDFTLTISSLEPEDFAVYYCQQRSNWPTFGQGTKVEIKR
B2: SG-559-03 (antibody, human IgG1, kappa, V domains shown)
VH: B1 VH
VL: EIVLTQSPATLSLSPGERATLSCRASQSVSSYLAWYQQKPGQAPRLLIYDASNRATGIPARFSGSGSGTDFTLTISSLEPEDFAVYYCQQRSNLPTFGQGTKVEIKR
B3: SG-559-04 (antibody, human IgG1, kappa, V domains shown)
VH: B1 VH with P107G
VL: not shown
B4: SG-559-05 (antibody, human IgG1, kappa, V domains shown)
VH: B1 VH with F55A
VL: not shown
B5: SG-559-06 (antibody, human IgG1, kappa, V domains shown)
VH: B1 VH with K57A
VL: not shown
B6: SG-559-07 (antibody, human IgG1, kappa, V domains shown)
VH: B1 VH with K57R
VL: not shown
B7: SG-559-08 (antibody, human IgG1, kappa, V domains shown)
VH: B1 VH with H59A
VL: not shown
B8: SG-559-09 (antibody, human IgG1, kappa, V domains shown)
VH: B1 VH with H59F
VL: not shown
B9: SG-559-10 (antibody, human IgG1, kappa, V domains shown)
VH: B1 VH with S106A
VL: not shown
B10: SG-559-13 (antibody, human IgG1, kappa, V domains shown)
VH: B1 VH
VL: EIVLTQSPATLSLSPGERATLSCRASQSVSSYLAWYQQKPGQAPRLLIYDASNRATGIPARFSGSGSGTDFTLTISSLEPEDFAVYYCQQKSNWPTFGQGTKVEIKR
B11: SG-559-14 (antibody, human IgG1, kappa, V domains shown)
VH: B1 VH
VL: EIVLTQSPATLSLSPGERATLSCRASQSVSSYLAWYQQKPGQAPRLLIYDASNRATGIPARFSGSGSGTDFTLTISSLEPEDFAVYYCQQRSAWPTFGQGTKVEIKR
B12: SG-559-15 (antibody, human IgG1, kappa, V domains shown)
VH: B1 VH
VL: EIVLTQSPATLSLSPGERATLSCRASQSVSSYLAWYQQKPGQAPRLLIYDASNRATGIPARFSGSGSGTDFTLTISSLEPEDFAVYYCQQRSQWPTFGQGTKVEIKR
B13: SG-559-16 (antibody, human IgG1, kappa, V domains shown)
VH: B1 VH
VL: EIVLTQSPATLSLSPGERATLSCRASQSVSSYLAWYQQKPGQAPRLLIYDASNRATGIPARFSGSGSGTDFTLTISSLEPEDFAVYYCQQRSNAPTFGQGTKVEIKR
B14: SG-559-17 (antibody, human IgG1, kappa, V domains shown)
VH: B1 VH
VL: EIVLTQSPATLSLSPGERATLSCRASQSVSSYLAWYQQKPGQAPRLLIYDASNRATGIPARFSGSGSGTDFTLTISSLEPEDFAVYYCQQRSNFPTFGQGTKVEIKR
B15: SG-559-02 - vc-MMAE (antibody, human IgG1, kappa, V domains shown)
VH: B1 VH
VL: B1 VL
modifications: vc-MMAE drug-linker, average DAR of 4; sites not stated in the example
B16: SG-559-03 - vc-MMAE (antibody, human IgG1, kappa, V domains shown)
VH: B1 VH
VL: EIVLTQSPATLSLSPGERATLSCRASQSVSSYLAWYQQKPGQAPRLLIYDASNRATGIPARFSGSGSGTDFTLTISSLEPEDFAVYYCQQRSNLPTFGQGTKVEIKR
modifications: vc-MMAE drug-linker, average DAR of 4; sites not stated in the example
B17: SG-559-04 - vc-MMAE (antibody, human IgG1, kappa, V domains shown)
VH: B1 VH with P107G
VL: not shown
modifications: vc-MMAE drug-linker, average DAR of 4; sites not stated in the example
B18: SG-559-02 - MP-PEG8-VKG-Camptothecin (antibody, human IgG1, kappa, V domains shown)
VH: B1 VH
VL: B1 VL
modifications: MP-PEG8-VKG-Camptothecin drug-linker, average DAR of 8; sites not stated in the example
B19: SG-559-03 - MP-PEG8-VKG-Camptothecin (antibody, human IgG1, kappa, V domains shown)
VH: B1 VH
VL: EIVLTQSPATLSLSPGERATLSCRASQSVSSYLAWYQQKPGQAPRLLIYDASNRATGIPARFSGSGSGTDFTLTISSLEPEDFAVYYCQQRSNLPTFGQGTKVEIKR
modifications: MP-PEG8-VKG-Camptothecin drug-linker, average DAR of 8; sites not stated in the example
B20: SG-559-04 - MP-PEG8-VKG-Camptothecin (antibody, human IgG1, kappa, V domains shown)
VH: B1 VH with P107G
VL: not shown
modifications: MP-PEG8-VKG-Camptothecin drug-linker, average DAR of 8; sites not stated in the example

What follows are binders tested against T1, human PD-L1 (Acro Biosciences) (human, UniProt Q9NZQ7 19-238) (assay: BLI (Octet Red 384), antibody on sensors, human PD-L1 in solution; head prints x10^3 S^-1, read as x10^-3 as KD = koff/kon requires).
T1 construct: Bought protein, used in solution as the analyte in BLI; also called hPD-L1; CD274
T1 sequence (Q9NZQ7 19-238 limits assumed): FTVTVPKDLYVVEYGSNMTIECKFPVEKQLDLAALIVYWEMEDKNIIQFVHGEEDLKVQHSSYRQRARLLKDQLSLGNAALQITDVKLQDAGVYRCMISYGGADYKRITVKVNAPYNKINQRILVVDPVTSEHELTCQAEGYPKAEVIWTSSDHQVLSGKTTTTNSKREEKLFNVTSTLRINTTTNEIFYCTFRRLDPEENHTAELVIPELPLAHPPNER

B1 and B2 are within 1.5-fold of each other in koff: 0.014 s⁻¹ for the first, 0.012 s⁻¹ for the second.

Going from B3 to B4, the koff rises from 0.01 s⁻¹ to 0.0424 s⁻¹ (4.2-fold).

Compared with B5, B6 is 8.8-fold lower in koff: 0.025 s⁻¹ for the first, 0.00284 s⁻¹ for the second.

Compared with B7, B8 is 3.3-fold lower in koff: 0.0219 s⁻¹ for the first, 0.00664 s⁻¹ for the second.

Compared with B9, B10 is 73-fold lower in koff: 0.118 s⁻¹ for the first, 0.00162 s⁻¹ for the second.

B11 and B12 are within 1.5-fold of each other in koff: 0.00355 s⁻¹ for the first, 0.00347 s⁻¹ for the second.

Compared with B13, B14 is 1.7-fold lower in koff: 0.00953 s⁻¹ for the first, 0.0057 s⁻¹ for the second.

The binders below were run against PD-L1 on cells (cancer cell lines expressing PD-L1; PD-L1+ aAPC/CHO-K1 cells) (human, UniProt Q9NZQ7 19-290) (assay: cell-based or functional assay).
PD-L1 on cells (cancer cell lines expressing PD-L1; PD-L1+ aAPC/CHO-K1 cells), sequence (Q9NZQ7 19-290): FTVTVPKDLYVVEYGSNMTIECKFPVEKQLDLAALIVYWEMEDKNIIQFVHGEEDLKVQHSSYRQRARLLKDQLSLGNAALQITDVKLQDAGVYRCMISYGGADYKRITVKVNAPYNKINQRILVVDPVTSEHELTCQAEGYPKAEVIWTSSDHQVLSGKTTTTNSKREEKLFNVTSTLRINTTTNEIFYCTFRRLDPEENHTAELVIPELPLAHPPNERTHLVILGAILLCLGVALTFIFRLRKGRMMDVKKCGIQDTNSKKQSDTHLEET

B15 and B16 cannot be ordered by “x50 (50% reduction in viability, CellTiter-Glo, 96 h) on 786-O cells” value: over 3000 ng/mL for the first, over 3000 ng/mL for the second.

First: B17
Second: B18
The “x50 (50% reduction in viability, CellTiter-Glo, 96 h) on 786-O cells” value of the first is higher: over 3000 ng/mL for the first, 283 ng/mL for the second.

Compared with B19, B20 is 7.3-fold lower in “x50 (50% reduction in viability, CellTiter-Glo, 96 h) on 786-O cells” value: 1380 ng/mL for the first, 190 ng/mL for the second.

B15 and B16 are within 1.5-fold of each other in “x50 (50% reduction in viability, CellTiter-Glo, 96 h) on BXPC3 cells” value: 19.1 ng/mL for the first, 16.4 ng/mL for the second.

B17 and B18 are within 1.5-fold of each other in “x50 (50% reduction in viability, CellTiter-Glo, 96 h) on BXPC3 cells” value: 17.3 ng/mL for the first, 20.1 ng/mL for the second.

First: B19
Second: B20
The “x50 (50% reduction in viability, CellTiter-Glo, 96 h) on BXPC3 cells” value of the first is 2.7-fold higher: 62.5 ng/mL for the first, 23.3 ng/mL for the second.

B15 and B16 are within 1.5-fold of each other in “x50 (50% reduction in viability, CellTiter-Glo, 96 h) on KARPAS 299 cells” value: 4.44 ng/mL for the first, 4.14 ng/mL for the second.

Compared with B17, B18 is 2-fold higher in “x50 (50% reduction in viability, CellTiter-Glo, 96 h) on KARPAS 299 cells” value: 3.42 ng/mL for the first, 6.72 ng/mL for the second.

Going from B19 to B20, the “x50 (50% reduction in viability, CellTiter-Glo, 96 h) on KARPAS 299 cells” value falls from 12.2 ng/mL to 5.95 ng/mL (2.1-fold).

B15 and B16 are within 1.5-fold of each other in “x50 (50% reduction in viability, CellTiter-Glo, 96 h) on L540CY cells” value: 26 ng/mL for the first, 20.9 ng/mL for the second.

First: B17
Second: B18
The “x50 (50% reduction in viability, CellTiter-Glo, 96 h) on L540CY cells” value of the first is 3.3-fold higher: 33.1 ng/mL for the first, 9.97 ng/mL for the second.

B19 and B20 are within 1.5-fold of each other in “x50 (50% reduction in viability, CellTiter-Glo, 96 h) on L540CY cells” value: 13.8 ng/mL for the first, 10.7 ng/mL for the second.

B15 and B16 are within 1.5-fold of each other in “x50 (50% reduction in viability, CellTiter-Glo, 96 h) on MDA-MB-231 cells” value: 26 ng/mL for the first, 22.9 ng/mL for the second.

First: B17
Second: B18
The “x50 (50% reduction in viability, CellTiter-Glo, 96 h) on MDA-MB-231 cells” value of the first is 2.4-fold higher: 24.3 ng/mL for the first, 10.2 ng/mL for the second.

Going from B19 to B20, the “x50 (50% reduction in viability, CellTiter-Glo, 96 h) on MDA-MB-231 cells” value falls from 15.1 ng/mL to 7.89 ng/mL (1.9-fold).

What follows are binders tested against T1, human PD-L1 (Acro Biosciences) (assay: BLI (Octet Red 384), antibody on anti-human Fab-CH1 sensors, human PD-L1 in solution, monovalent;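 note: after association, a 1000 s dissociation phase ran in buffer without PD-L1, on- and off-rate constants came from fitting the binding curves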).

B1 and B2 are within 1.5-fold of each other in Kd: 33.3 nM for the first, 24.5 nM for the second.

Compared with B3, B4 is 4.6-fold higher in Kd: 25.6 nM for the first, 119 nM for the second. The first binds more tightly here.

Compared with B5, B6 is 8-fold lower in Kd: 79.9 nM for the first, 10 nM for the second.

Compared with B7, B8 is 2.6-fold lower in Kd: 66.6 nM for the first, 25.5 nM for the second. The second binds more tightly here.

First: B9
Second: B10
The Kd of the first is 67-fold higher: 288 nM for the first, 4.3 nM for the second. The second binds more tightly here.

B11 and B12 are within 1.5-fold of each other in Kd: 8.9 nM for the first, 7.5 nM for the second.

Going from B13 to B14, the Kd falls from 24.7 nM to 12.5 nM (2-fold).

B1 and B2 are within 1.5-fold of each other in kon: 420000 M⁻¹ s⁻¹ for the first, 490000 M⁻¹ s⁻¹ for the second.

B3 and B4 are within 1.5-fold of each other in kon: 390000 M⁻¹ s⁻¹ for the first, 357000 M⁻¹ s⁻¹ for the second.

B5 and B6 are within 1.5-fold of each other in kon: 313000 M⁻¹ s⁻¹ for the first, 285000 M⁻¹ s⁻¹ for the second.

B7 and B8 are within 1.5-fold of each other in kon: 329000 M⁻¹ s⁻¹ for the first, 260000 M⁻¹ s⁻¹ for the second.

B9 and B10 are within 1.5-fold of each other in kon: 410000 M⁻¹ s⁻¹ for the first, 381000 M⁻¹ s⁻¹ for the second.

B11 and B12 are within 1.5-fold of each other in kon: 399000 M⁻¹ s⁻¹ for the first, 462000 M⁻¹ s⁻¹ for the second.

B13 and B14 are within 1.5-fold of each other in kon: 386000 M⁻¹ s⁻¹ for the first, 456000 M⁻¹ s⁻¹ for the second.
